According to patent publication US8106013B2 (Georgia Tech Research Corporation, priority 2006, dated 2012):

Tests used:
[1] = target: T1, Shaker Kv1.1 channels (ShB-IR) (Drosophila melanogaster, UniProt P08510, DEL6-46); experiment: ShB-IR K+ currents in oocytes, two-electrode voltage clamp; format: cell-based; settings: 24 nM recombinant ChTx
T1 construct: expressed in transfected cells; host or cells: Xenopus oocytes injected with cRNA
Procedure: For ShB-IR, holding potential was −90 mV. Leak subtraction used a P/4 protocol with a conditioning pulse to −120 mV. Voltage was stepped from −100 mV post-train to potentials ranging from −40 to 0 mV in 10 mV increments.
Adult female Xenopus were obtained from Xenopus One (Ann Arbor, Mich.). […] For experiments with ShB-IR, oocytes were injected with 0.06-1 ng cRNA. Leak currents were subtracted using a P/4 protocol; corrected traces are shown.
For these experiments, the ShB variant was used with inactivation-removed (ShB-IR).

[2] = target: T1, Shaker Kv1.1 channels (ShB-IR); settings: read-out: reported Ki for inhibition of Shaker channels; cited from earlier work

T1 sequence (P08510 with tags, fused parts or gaps DEL6-46): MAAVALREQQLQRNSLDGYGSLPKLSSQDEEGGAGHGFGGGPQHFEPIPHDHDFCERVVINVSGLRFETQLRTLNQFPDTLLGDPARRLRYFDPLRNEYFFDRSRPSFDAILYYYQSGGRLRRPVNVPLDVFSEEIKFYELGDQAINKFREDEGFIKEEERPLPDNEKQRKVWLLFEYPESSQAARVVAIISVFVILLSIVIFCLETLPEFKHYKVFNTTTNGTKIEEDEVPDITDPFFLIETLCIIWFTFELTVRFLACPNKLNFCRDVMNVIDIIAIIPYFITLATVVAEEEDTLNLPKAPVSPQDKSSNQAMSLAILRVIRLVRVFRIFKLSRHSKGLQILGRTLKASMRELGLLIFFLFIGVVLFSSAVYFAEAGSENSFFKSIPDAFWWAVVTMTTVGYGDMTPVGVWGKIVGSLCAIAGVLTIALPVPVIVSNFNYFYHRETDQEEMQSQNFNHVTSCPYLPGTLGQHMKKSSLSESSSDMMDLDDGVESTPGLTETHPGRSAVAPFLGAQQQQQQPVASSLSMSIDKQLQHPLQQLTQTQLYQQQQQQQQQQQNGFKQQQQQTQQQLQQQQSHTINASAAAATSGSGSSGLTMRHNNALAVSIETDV

charybdotoxin [ChTx]
inhibition of ShB-IR currents [1]: 15%
Ki [2]: ~200 nM
